Five molecules from US20260116991A1 (HAINAN SIMCERE ZAIMING PHARMACEUTICAL, published 2026) can be followed below.

B1: hAb006LH1L1a (antibody, human IgG1, V domains shown)
VH: EVQLVQSGAEVKKPGSSVKVSCKASGYTFSDYEIHWVRQAPGQGLEWMGAIDPKTGNTAYNQKFMGRVTITADKSTSTAYMELSSLRSEDTAVYYCTRYFSFAYWGQGTLVTVSS
VL: DIVMTQTPLSLPVTPGEPASISCRSSQTFVHSDGNTYLQWYLQKPGQSPQLLIYKVSNRFSGVPDRFSGSGSGTDFTLKISRVEAEDVGVYYCFQGSHVPYTFGQGTKLEIK
notes: Humanized F3.38.7; VH H1 + VL L1a; expressed as human IgG1
B2: hAb006LH2L1a (antibody, human IgG1, V domains shown)
VH: EVQLVQSGAEVKKPGSSVKVSCKASGYTFTDYEIHWVRQAPGQGLEWMGAIDPKTGNTAYNQKFMGRVTITADKSTSTAYMELSSLRSEDTAVYYCTRYFSFAYWGQGTLVTVSS
VL: DIVMTQTPLSLPVTPGEPASISCRSSQTFVHSDGNTYLQWYLQKPGQSPQLLIYKVSNRFSGVPDRFSGSGSGTDFTLKISRVEAEDVGVYYCFQGSHVPYTFGQGTKLEIK
notes: Humanized F3.38.7; VH H2 + VL L1a; expressed as human IgG1
B3: hAb007LH1L1a (antibody, human IgG1, V domains shown)
VH: EVQLVQSGAEVKKPGSSVKVSCKASGYTFSDYEMHWVRQAPGQGLEWMGTIDPETGNTAYNQKFKGRVTITADKSTSTAYMELSSLRSEDTAVYYCTRPYSLTYWGQGTLVTVSS
VL: DIVMTQTPLSLPVTPGEPASISCRSSQSFVHSDGDTYLQWYLQKPGQSPQLLIYKVSNRFSGVPDRFSGSGSGTDFTLKISRVEAEDVGVYYCFQGSHVPYTFGQGTKLEIK
notes: Humanized F3.81.19; VH H1 + VL L1a; expressed as human IgG1
B4: hAb006LH3L1a (antibody, human IgG1, V domains shown)
VH: EVQLVQSGAEVKKPGSSVKVSCKASGYTFTDYEIHWVRQAPGQGLEWMGAIDPKTGNTAYNQKFMGRVTLTADKSTSTAYMELSSLRSEDTAVYYCTRYFSFAYWGQGTLVTVSS
VL: DIVMTQTPLSLPVTPGEPASISCRSSQTFVHSDGNTYLQWYLQKPGQSPQLLIYKVSNRFSGVPDRFSGSGSGTDFTLKISRVEAEDVGVYYCFQGSHVPYTFGQGTKLEIK
notes: Humanized F3.38.7; VH H3 + VL L1a; expressed as human IgG1
B5: hAb007LH2L1a (antibody, human IgG1, V domains shown)
VH: EVQLVQSGAEVKKPGSSVKVSCKASGYTFTDYEMHWVRQAPGQGLEWMGTIDPETGNTAYNQKFKGRVTITADKSTSTAYMELSSLRSEDTAVYYCTRPYSLTYWGQGTLVTVSS
VL: DIVMTQTPLSLPVTPGEPASISCRSSQSFVHSDGDTYLQWYLQKPGQSPQLLIYKVSNRFSGVPDRFSGSGSGTDFTLKISRVEAEDVGVYYCFQGSHVPYTFGQGTKLEIK
notes: Humanized F3.81.19; VH H2 + VL L1a; expressed as human IgG1

The target in this assay is biotinylated labeled human GPC3 protein (produced in-house) (human, UniProt P51654 25-559, limits assumed, biotinylated (Dojindo, Cat. No. LK03); sites not stated). Put plainly: ELISA, biotinylated human GPC3 protein. (In general: In an ELISA, binding on a coated surface is turned into a signal by an enzyme label.)
In the case of B1, the “OD450 at 0.0008 nM” value was 0.076 OD450, the “OD450 at 0.004 nM” value was found to be 0.078 OD450, the “OD450 at 0.02 nM” value stood at 0.101 OD450 and the “OD450 at 0.11 nM” value came out at 0.268 OD450. Besides, the “OD450 at 0.53 nM” value is 0.904 OD450, the “OD450 at 2.67 nM” value was determined as 1.49 OD450, the “OD450 at 13.33 nM” value worked out at 1.92 OD450 and the “OD450 at 66.66 nM” value came out at 2.1 OD450.

On to B2, for which the “OD450 at 0.0008 nM” value amounted to 0.073 OD450, the “OD450 at 0.004 nM” value is 0.072 OD450, the “OD450 at 0.02 nM” value is 0.076 OD450 and the “OD450 at 0.11 nM” value turned out to be 0.139 OD450. Moreover, the “OD450 at 0.53 nM” value came to 0.584 OD450, the “OD450 at 2.67 nM” value amounted to 1.37 OD450, the “OD450 at 13.33 nM” value was determined as 1.74 OD450 and the “OD450 at 66.66 nM” value is 1.92 OD450.

Take B3: the “OD450 at 0.0008 nM” value came out at 0.087 OD450, the “OD450 at 0.004 nM” value amounted to 0.112 OD450, the “OD450 at 0.02 nM” value was 0.218 OD450 and the “OD450 at 0.11 nM” value turned out to be 0.634 OD450. Further, the “OD450 at 0.53 nM” value stood at 1.57 OD450, the “OD450 at 2.67 nM” value came to 2.1 OD450, the “OD450 at 13.33 nM” value turned out to be 2.2 OD450 and the “OD450 at 66.66 nM” value is 2.22 OD450.

For B4, the “OD450 at 0.0008 nM” value was 0.076 OD450, the “OD450 at 0.004 nM” value was determined as 0.072 OD450, the “OD450 at 0.02 nM” value was 0.087 OD450 and the “OD450 at 0.11 nM” value was found to be 0.207 OD450. The “OD450 at 0.53 nM” value turned out to be 0.909 OD450, the “OD450 at 2.67 nM” value amounted to 1.48 OD450, the “OD450 at 13.33 nM” value was 1.83 OD450 and the “OD450 at 66.66 nM” value stood at 2.07 OD450.

With B5, the “OD450 at 0.0008 nM” value was determined as 0.092 OD450, the “OD450 at 0.004 nM” value stood at 0.099 OD450, the “OD450 at 0.02 nM” value is 0.173 OD450 and the “OD450 at 0.11 nM” value amounted to 0.491 OD450. Also, the “OD450 at 0.53 nM” value came to 1.29 OD450, the “OD450 at 2.67 nM” value was 1.95 OD450, the “OD450 at 13.33 nM” value amounted to 2.12 OD450 and the “OD450 at 66.66 nM” value was found to be 2.09 OD450.
